# Results as given in US20220074941A1, “HSP90 COMBINATION THERAPY” (Sloan-Kettering Institute for Cancer Research, priority 2011, published 2022).
# B1: PLBD1 (protein, UniProt Q6P4A8 39-553, looked up)
# Phospholipase B-like 1: GVYYATAYWMPAEKTVQVKNVMDKNGDAYGFYNNSVKTTGWGILEIRAGYGSQTLSNEIIMFVAGFLEGYLTAPHMNDHYTNLYPQLITKPSIMDKVQDFMEKQDKWTRKNIKEYKTDSFWRHTGYVMAQIDGLYVGAKKRAILEGTKPMTLFQIQFLNSVGDLLDLIPSLSPTKNGSLKVFKRWDMGHCSALIKVLPGFENILFAHSSWYTYAAMLRIYKHWDFNVIDKDTSSSRLSFSSYPGFLESLDDFYILSSGLILLQTTNSVFNKTLLKQVIPETLLSWQRVRVANMMADSGKRWADIFSKYNSGTYNNQYMVLDLKKVKLNHSLDKGTLYIVEQIPTYVEYSEQTDVLRKGYWPSYNVPFHEKIYNWSGYPLLVQKLGLDYSYDLAPRAKIFRRDQGKVTDTASMKYIMRYNNYKKDPYSRGDPCNTICCREDLNSPNPSPGGCYDTKVADIYLASQYTSYAISGPTVQGGLPVFRWDRFNKTLHQGMPEVYNFDFITMKPILKLDIK
# B2: GPS2 (protein, UniProt Q13227 1-327, looked up)
# G protein pathway suppressor 2: MPALLERPKLSNAMARALHRHIMMERERKRQEEEEVDKMMEQKMKEEQERRKKKEMEERMSLEETKEQILKLEEKLLALQEEKHQLFLQLKKVLHEEEKRRRKEQSDLTTLTSAAYQQSLTVHTGTHLLSMQGSPGGHNRPGTLMAADRAKQMFGPQVLTTRHYVGSAAAFAGTPEHGQFQGSPGGAYGTAQPPPHYGPTQPAYSPSQQLRAPSAFPAVQYLSQPQPQPYAVHGHFQPTQTGFLQPGGALSLQKQMEHANQQTGFSDSSSLRPMHPQALHPAPGLLASPQLPVQMQPAGKSGFAATSQPGPRLPFIQHSQNPRFYHK
# B3: PHB (protein, UniProt P35232 2-272, looked up)
# Prohibitin 1: AAKVFESIGKFGLALAVAGGVVNSALYNVDAGHRAVIFDRFRGVQDIVVGEGTHFLIPWVQKPIIFDCRSRPRNVPVITGSKDLQNVNITLRILFRPVASQLPRIFTSIGEDYDERVLPSITTEILKSVVARFDAGELITQRELVSRQVSDDLTERAATFGLILDDVSLTHLTFGKEFTEAVEAKQVAQQEAERARFVVEKAEQQKKAAIISAEGDSKAAELIANSLATAGDGLIELRKLEAAEDIAYQLSRSRNITYLPAGQSVLLQLPQ
# B4: PTPLAD1 (protein, UniProt Q9P035 1-362, looked up)
# Very-long-chain …: MENQVLTPHVYWAQRHRELYLRVELSDVQNPAISITENVLHFKAQGHGAKGDNVYEFHLEFLDLVKPEPVYKLTQRQVNITVQKKVSQWWERLTKQEKRPLFLAPDFDRWLDESDAEMELRAKEEERLNKLRLESEGSPETLTNLRKGYLFMYNLVQFLGFSWIFVNLTVRFCILGKESFYDTFHTVADMMYFCQMLAVVETINAAIGVTTSPVLPSLIQLLGRNFILFIIFGTMEEMQNKAVVFFVFYLWSAIEIFRYSFYMLTCIDMDWKVLTWLRYTLWIPLYPLGCLAEAVSVIQSIPIFNETGRFSFTLPYPVKIKVRFSFFLQIYLIMIFLGLYINFRHLYKQRRRRYGQKKKKIH
# B5: STRN (protein, UniProt O43815 1-780, looked up)
# Striatin: MDEQAGPGVFFSNNHPGAGGAKGLGPLAEAAAAGDGAAAAGAARAQYSLPGILHFLQHEWARFEVERAQWEVERAELQAQIAFLQGERKGQENLKKDLVRRIKMLEYALKQERAKYHKLKYGTELNQGDMKPPSYDSDEGNETEVQPQQNSQLMWKQGRQLLRQYLQEVGYTDTILDVKSKRVRALLGFSSDVTDREDDKNQDSVVNGTEAEVKETAMIAKSELTDSASVLDNFKFLESAAADFSDEDEDDDVDGREKSVIDTSTIVRKKALPDSGEDRDTKEALKEFDFLVTSEEGDNESRSAGDGTDWEKEDQCLMPEAWNVDQGVITKLKEQYKKERKGKKGVKRPNRSKLQDMLANLRDVDELPSLQPSVGSPSRPSSSRLPEHEINRADEVEALTFPPSSGKSFIMGADEALESELGLGELAGLTVANEADSLTYDIANNKDALRKTWNPKFTLRSHFDGIRALAFHPIEPVLITASEDHTLKMWNLQKTAPAKKSTSLDVEPIYTFRAHKGPVLCVVMSSNGEQCYSGGTDGLIQGWNTTNPNIDPYDSYDPSVLRGPLLGHTDAVWGLAYSAAHQRLLSCSADGTLRLWNTTEVAPALSVFNDTKELGIPASVDLVSSDPSHMVASFSKGYTSIFNMETQQRILTLESNVDTTANSSCQINRVISHPTLPISITAHEDRHIKFYDNNTGKLIHSMVAHLEAVTSLAVDPNGLYLMSGSHDCSIRLWNLESKTCIQEFTAHRKKFEESIHDVAFHPSKCYIASAGADALAKVFV
# B6: ZC3HAV1 (protein, UniProt Q7Z2W4 2-902, looked up)
# Zinc finger CCCH-type …: ADPEVCCFITKILCAHGGRMALDALLQEIALSEPQLCEVLQVAGPDRFVVLETGGEAGITRSVVATTRARVCRRKYCQRPCDNLHLCKLNLLGRCNYSQSERNLCKYSHEVLSEENFKVLKNHELSGLNKEELAVLLLQSDPFFMPEICKSYKGEGRQQICNQQPPCSRLHICDHFTRGNCRFPNCLRSHNLMDRKVLAIMREHGLNPDVVQNIQDICNSKHMQKNPPGPRAPSSHRRNMAYRARSKSRDRFFQGSQEFLASASASAERSCTPSPDQISHRASLEDAPVDDLTRKFTYLGSQDRARPPSGSSKATDLGGTSQAGTSQRFLENGSQEDLLHGNPGSTYLASNSTSAPNWKSLTSWTNDQGARRKTVFSPTLPAARSSLGSLQTPEAVTTRKGTGLLSSDYRIINGKSGTQDIQPGPLFNNNADGVATDITSTRSLNYKSTSSGHREISSPRIQDAGPASRDVQATGRIADDADPRVALVNDSLSDVTSTTSSRVDDHDSEEICLDHLCKGCPLNGSCSKVHFHLPYRWQMLIGKTWTDFEHMETIEKGYCNPGIHLCSVGSYTINFRVMSCDSFPIRRLSTPSSVTKPANSVFTTKWIWYWKNESGTWIQYGEEKDKRKNSNVDSSYLESLYQSCPRGVVPFQAGSRNYELSFQGMIQTNIASKTQKDVIRRPTFVPQWYVQQMKRGPDHQPAKTSSVSLTATFRPQEDFCFLSSKKYKLSEIHHLHPEYVRVSEHFKASMKNFKIEKIKKIENSELLDKFTWKKSQMKEEGKLLFYATSRAYVESICSNNFDSFLHETHENKYGKGIYFAKDAIYSHKNCPYDAKNVVMFVAQVLVGKFTEGNITYTSPPPQFDSCVDTRSNPSVFVIFQKDQVYPQYVIEYTEDKACVIS
# B7: SDPR (protein, UniProt O95810 2-425, looked up)
# Caveolae-associated protein 2: GEDAAQAEKFQHPGSDMRQEKPSSPSPMPSSTPSPSLNLGNTEEAIRDNSQVNAVTVLTLLDKLVNMLDAVQENQHKMEQRQISLEGSVKGIQNDLTKLSKYQASTSNTVSKLLEKSRKVSAHTRAVKERMDRQCAQVKRLENNHAQLLRRNHFKVLIFQEENEIPASVFVKQPVSGAVEGKEELPDENKSLEETLHTVDLSSDDDLPHDEEALEDSAEEKVEESRAEKIKRSSLKKVDSLKKAFSRQNIEKKMNKLGTKIVSVERREKIKKSLTSNHQKISSGKSSPFKVSPLTFGRKKVREGESHAENETKSEDLPSSEQMPNDQEEESFAEGHSEASLASALVEGEIAEEAAEKATSRGSNSGMDSNIDLTIVEDEEEESVALEQAQKVRYEGSYALTSEEAERSDGDPVQPAVLQVHQTS
# B8: CSDE1 (protein, UniProt O75534 1-798, looked up)
# Cold shock domain-containing …: MSFDPNLLHNNGHNGYPNGTSAALRETGVIEKLLTSYGFIQCSERQARLFFHCSQYNGNLQDLKVGDDVEFEVSSDRRTGKPIAVKLVKIKQEILPEERMNGQVVCAVPHNLESKSPAAPGQSPTGSVCYERNGEVFYLTYTPEDVEGNVQLETGDKINFVIDNNKHTGAVSARNIMLLKKKQARCQGVVCAMKEAFGFIERGDVVKEIFFHYSEFKGDLETLQPGDDVEFTIKDRNGKEVATDVRLLPQGTVIFEDISIEHFEGTVTKVIPKVPSKNQNDPLPGRIKVDFVIPKELPFGDKDTKSKVTLLEGDHVRFNISTDRRDKLERATNIEVLSNTFQFTNEAREMGVIAAMRDGFGFIKCVDRDVRMFFHFSEILDGNQLHIADEVEFTVVPDMLSAQRNHAIRIKKLPKGTVSFHSHSDHRFLGTVEKEATFSNPKTTSPNKGKEKEAEDGIIAYDDCGVKLTIAFQAKDVEGSTSPQIGDKVEFSISDKQRPGQQVATCVRLLGRNSNSKRLLGYVATLKDNFGFIETANHDKEIFFHYSEFSGDVDSLELGDMVEYSLSKGKGNKVSAEKVNKTHSVNGITEEADPTIYSGKVIRPLRSVDPTQTEYQGMIEIVEEGDMKGEVYPFGIVGMANKGDCLQKGESVKFQLCVLGQNAQTMAYNITPLRRATVECVKDQFGFINYEVGDSKKLFFHVKEVQDGIELQAGDEVEFSVILNQRTGKCSACNVWRVCEGPKAVAAPRPDRLVNRLKNITLDDASAPRLMVLRQPRGPDNSMGFGAERKIRQAGVID
# B9: PSPC1 (protein, UniProt Q8WXF1 1-523, looked up)
# Paraspeckle component 1: MMLRGNLKQVRIEKNPARLRALESAVGESEPAAAAAMALALAGEPAPPAPAPPEDHPDEEMGFTIDIKSFLKPGEKTYTQRCRLFVGNLPTDITEEDFKRLFERYGEPSEVFINRDRGFGFIRLESRTLAEIAKAELDGTILKSRPLRIRFATHGAALTVKNLSPVVSNELLEQAFSQFGPVEKAVVVVDDRGRATGKGFVEFAAKPPARKALERCGDGAFLLTTTPRPVIVEPMEQFDDEDGLPEKLMQKTQQYHKEREQPPRFAQPGTFEFEYASRWKALDEMEKQQREQVDRNIREAKEKLEAEMEAARHEHQLMLMRQDLMRRQEELRRLEELRNQELQKRKQIQLRHEEEHRRREEEMIRHREQEELRRQQEGFKPNYMENREQEMRMGDMGPRGAINMGDAFSPAPAGNQGPPPMMGMNMNNRATIPGPPMGPGPAMGPEGAANMGTPMMPDNGAVHNDRFPQGPPSQMGSPMGSRTGSETPQAPMSGVGPVSGGPGGFGRGSQGGNFEGPNKRRRY
# Test system: Hsp90 complexes in Mia-PaCa-2 cell extract
# Assay: Nano-LC-MS/MS of PU-beads pull-downs
# Type: binding, human
# Settings: protein identified in PU-beads pull-down of Mia-PaCa-2 cell extract; QSTAR-Elite QTof MS
# In short: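 They came from PU-bead pull-downs of pre-cleared lysates (control beads, overnight, 4 °C), eluted by boiling in 2% SDS, gel-separated and run by data-dependent nano-ESI QTof MS/MS.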
row,Molecule,"Number of Assigned Spectra, Mia-Paca 2"
1,B1,2
2,B2,0
3,B3,0
4,B4,0
5,B5,0
6,B6,0
7,B7,4
8,B8,0
9,B9,0

# Test system: Hsp90 complexes in K562 cell extract
# Assay: Nano-LC-MS/MS of PU-beads pull-downs
# Type: binding
# Settings: protein identified in PU-beads pull-down of K562 cell extract, Prep 1; QSTAR-Elite QTof MS
# In short: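 Proteins were identified by data-dependent nano LC-MS/MS (QTof, ESI) and Mascot searching (p<0.05), then reported as spectral counts and coverage via Scaffold. Inputs were PU-bead versus control-bead pull-downs from lysate pre-cleared with control beads overnight at 4 °C, eluted by boiling in 2% SDS.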
row,Molecule,"Number of Assigned Spectra, K562 Prep 1"
1,B1,0
2,B2,5
3,B3,5
4,B4,2
5,B5,5
6,B6,7
7,B7,0
8,B8,4
9,B9,5

# Same assay, conditions: protein identified in PU-beads pull-down of K562 cell extract, Prep 2; QSTAR-Elite QTof MS
row,Molecule,"Number of Assigned Spectra, K562 Prep 2"
1,B1,0
2,B2,0
3,B3,0
4,B4,0
5,B5,1
6,B6,0
7,B7,0
8,B8,0
9,B9,2
